This passage reports accumulation of transduced T cells over multiple stimulations with irradiated CD200+ FBL and lysis of CD200+ FBL cells (CFSE-based cytotoxicity assay) results from patent publication US20180044404A1.

For the experiment, the target named is CD200 on FBL cells transduced with CD200 (CD200+ FBL). Briefly: cell-based or functional assay.

The substance “CD200R-9aas-CD28Cys (murine construct V) (from UniProt Q9ES57 26-229; P31041 142-150; P31041 151-218)” showed an accumulation of transduced T cells over multiple stimulations with irradiated CD200+ FBL of 3 fold and a lysis of CD200+ FBL cells (CFSE-based cytotoxicity assay) greater than 40%.
